This is an account of results in the supplement of paper PMC12764529.

A short description of data set [1]: folding stability dG unfold (combined trypsin and chymotrypsin); higher = more stable. An outline of the steps: (§1)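 K50 was inferred by Bayesian fitting of sequencing counts obtained after protease digestion of designed mini-proteins. Unfolding free energy was derived by comparison with a sequence-predicted unfolded-state K50 and a shared folded-state K50, for each protease or both combined. The mini-proteins were under 80 residues, had no cysteine, were carried in a PA-tagged cDNA display construct, and were kept only if AlphaFold2 dimer inter-PAE exceeded 15.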

Data set [2] is described as follows: folding stability dG unfold from chymotrypsin proteolysis; higher = more stable. An outline of the steps:
as §1

Data set [3] can be described thus: folding stability dG unfold from trypsin proteolysis; higher = more stable. An outline of the steps: as §1

± gives the half width of the 95% confidence interval.

As to “SAGGEEELKKNPDLIVIKITIRNKETGEEIEELEIVLSKEELEELLETLRKLLPPGWEIVKVEIRKLPSAGG [r13_849_TrROS_Hall]”, the “folding stability dG unfold” value in data set [1] was determined as 4 ± 0.3 kcal/mol; in data set [2] it was 3.02 ± 0.14 kcal/mol; in data set [3], 4.11 ± 0.24 kcal/mol.

For the sequence “SAGGEEIEAEVVEVRTFTLENGFEVTTTLIRVDGKLILITSVKKTKNGKWEVVEVKELPLEELSPEELSAGG [r13_494_TrROS_Hall]”, the “folding stability dG unfold” value in data set [1] is 2.93 ± 0.14 kcal/mol; in data set [2], 2.73 ± 0.035 kcal/mol; in data set [3], 3.35 ± 0.14 kcal/mol.

Regarding “SAGGEELARRLAEELRELGLEVEVVDVDLEEGKITIRVRPAPPPPPVTERRTRRRPDGREVTEERVLSAGGS [r8_318_TrROS_Hall]”, the “folding stability dG unfold” value in data set [1] stood at 0.214 ± 0.16 kcal/mol; in data set [2], 0.0369 ± 0.15 kcal/mol; in data set [3] it was 0.282 ± 0.21 kcal/mol.

Turning to “SAGGEELMKDHPNFIFITIEIRHPGGGKEKPKFMIMIPNNTPEELIDELRDFLPPGYKIKDVEIHYMDSAGG [r13_849_TrROS]”, the “folding stability dG unfold” value in data set [1] was determined as 2.14 ± 0.17 kcal/mol; in data set [2] it was 1.72 ± 0.096 kcal/mol; in data set [3], 2.41 ± 0.13 kcal/mol.

For the sequence “SAGGEEVILTLPDGSPVRVIPDEGTASFELPGYRVETEVLPDGRIRLTVRDPAAGALVRELDLGLLRSAGGS [r16_760_JUSTAS]”, the “folding stability dG unfold” value in data set [1] worked out at 0.623 ± 0.039 kcal/mol; in data set [2], 0.789 ± 0.068 kcal/mol; in data set [3], 0.158 ± 0.039 kcal/mol.

For the sequence “SAGGEEVKTIKVTLAFYNPETGELVAEVEATATLVDGKLVLTTTVTFRPAPAGEPVTVTVTVVEPEESAGGS [r16_327_TrROS_Hall]”, the “folding stability dG unfold” value in data set [1] turned out to be 3.39 ± 0.24 kcal/mol; in data set [2], 3.63 ± 0.13 kcal/mol; in data set [3], 2.93 ± 0.39 kcal/mol.

For “SAGGEEVTIKLSDELRDLVPDAEIRVERLEDGTLRIEIRVRLPAPEPPEPVERREERRVEVRVEVRLESAGG [r13_129_TrROS_Hall]”, the “folding stability dG unfold” value in data set [1] was determined as 2.14 ± 0.13 kcal/mol; in data set [2], 2.22 ± 0.22 kcal/mol; in data set [3], 1.98 ± 0.16 kcal/mol.

With “SAGGEGEILDKKEFTFPDNVKLEVYVFKVGDKYFVKVKTTITVPENPTKPKKPLKKITPEDIKKALEKSAGG [r13_760_TrMRF]”, the “folding stability dG unfold” value was found to be 1.5 ± 0.5 kcal/mol in data set [1], 1.88 ± 0.21 kcal/mol in data set [2] and 0.151 ± 0.33 kcal/mol in data set [3].

“SAGGEGKEDKKIKVLFINVPVDKPDLLLKLAKEIIEKKEYDIIIVDHPENYKALKEAFPEYDIPIILGSAGG [r13_353_TrMRF]”: the “folding stability dG unfold” value is 3.29 ± 0.069 kcal/mol in data set [1], 3.673 ± 0.022 kcal/mol in data set [2] and 2.04 ± 0.064 kcal/mol in data set [3].

In the case of “SAGGEIERDPNGWIRMTYTLPGFGYKIEITFRVPDNGMMQIEDIDIEPIPPVPPPPPPKYDPNGEWKYSAGG [r13_646_TrROS]”, the figures for the “folding stability dG unfold” value in data set [1], in data set [2] and in data set [3] were 2.02 ± 0.17 kcal/mol, 2.25 ± 0.041 kcal/mol and 1.64 ± 0.08 kcal/mol, respectively.

Consider “SAGGEIKIKKSKDGKTLYIEIKIKAGEKVKLKLTITLPNGKKAEITSVEIIEKNGELYIKVEIKIKDSAGGS [r16_499_TrROS_Hall]”, for which the “folding stability dG unfold” value in data set [1] is 4.42 ± 0.42 kcal/mol; in data set [2] it was 4.67 ± 0.4 kcal/mol; in data set [3] it was 3.92 ± 0.28 kcal/mol.

Turning to “SAGGEKATVTVVYDPEKGYVVVPVDIPFLDENGKPKKLKLVFVLPASPEAEEAVKELAKELGLESVESAGGS [r8_381_TrMRF]”, the “folding stability dG unfold” value in data set [1] came to 2.11 ± 0.2 kcal/mol; in data set [2], 2.38 ± 0.059 kcal/mol; in data set [3] it was 1.37 ± 0.1 kcal/mol.

Consider “SAGGEKIKEALEKVPGLEIVKVEKKDGKVYIHIKAKSEEQRKKAAEALKKLPGIKEVKIEVIPEEELSAGGS [r16_671_TrROS_Hall]”, for which the “folding stability dG unfold” value in data set [1] came to 3.03 ± 0.21 kcal/mol; in data set [2] it was 2.88 ± 0.064 kcal/mol; in data set [3], 3.28 ± 0.15 kcal/mol.

On to “SAGGEKIKLKVVIKVPKELKNLSKEEIEELLKKKLGPNYKITKVEIKVEKNENGEEYLVVEVEIEKESAGGS [r16_408_TrROS_Hall]”, for which the “folding stability dG unfold” value in data set [1] stood at 3.58 ± 0.23 kcal/mol; in data set [2], 3.37 ± 0.13 kcal/mol; in data set [3], 3.64 ± 0.21 kcal/mol.

Take “SAGGEKITAEELVEEIQKIFNENGMKPVAIEPMPDGGVFIHFKNPYMIMIDAEEGKIEIMPPEDMEDFSAGG [r13_717_TrROS]”: the “folding stability dG unfold” value was determined as 1.09 ± 0.27 kcal/mol in data set [1], 1.49 ± 0.13 kcal/mol in data set [2] and 1.04 ± 0.068 kcal/mol in data set [3].

Take “SAGGEKITIEVDGKKVTITKNEDGTITITIEHNGKVIKTITLPKNLEKITELTLTFNGKTYTITIEPSAGGS [r16_452_TrROS_Hall]”: the “folding stability dG unfold” value amounted to 4.97 ± 0.11 kcal/mol in data set [1], 5.013 ± 0.048 kcal/mol in data set [2] and 3.9 ± 0.13 kcal/mol in data set [3].

As to “SAGGEKRYLVRVRAYYRFEEGERELDLEVEVTSPEEAKELLEKIATRLRKLYPDRIRIEVEIRPLEESAGGS [r16_475_TrMRF]”, the entries for the “folding stability dG unfold” value in data set [1], in data set [2] and in data set [3] were 4.94 ± 0.14 kcal/mol, 5.1 ± 0.12 kcal/mol and 4.53 ± 0.17 kcal/mol, respectively.

For “SAGGEKTLTVEYNPEDDYLTFTLTLTRPGYDPVTGKPREYKVTLTFTVPLNEATPEHVKLALEIYEKDSAGG [r13_980_TrMRF]”, the “folding stability dG unfold” value in data set [1] was found to be 4.28 ± 0.56 kcal/mol; in data set [2] it was 4.71 ± 0.15 kcal/mol; in data set [3], 2.88 ± 0.13 kcal/mol.
